One experiment has as its target T1, Sec7-domain of ARNO (Homo sapiens, UniProt Q99418).
T1 construct: iii) 61-252aa, Sec7 domain; GST (N, cleaved yes); made in house; host or cells: E. coli BL21(DE3)
T1 sequence (Q99418 61-252): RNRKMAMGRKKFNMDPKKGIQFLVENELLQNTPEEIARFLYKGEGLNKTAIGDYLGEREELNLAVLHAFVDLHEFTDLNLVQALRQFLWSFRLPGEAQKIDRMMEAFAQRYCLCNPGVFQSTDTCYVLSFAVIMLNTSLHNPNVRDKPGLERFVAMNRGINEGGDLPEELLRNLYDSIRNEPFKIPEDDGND
The experiment in a line: a2N-derived peptide pull-down with GST-Sec7 domain. The experiment is classed as binding. To be noted: GST-Sec7-6His. The method, then:
(§1) FIGS. 5A-C are a set of three images of Western blots showing the identification of interaction motif of a2N that is involved in specific binding with the Sec7 domain of ARNO. 5A, The catalytic Sec7 domain of ARNO interacts with two a2N-derived peptides, a2N-01 and a2N-03, in pull-down experiments. The peptide pull-down assay was performed with six a2N-derived interaction peptides immobilized on streptavidin-beads and incubated with purified recombinant GST-only or GST-Sec7 domain. Interacting complexes were eluted and analyzed by Western blotting using monoclonal anti-GST antibodies as described below. The loading controls for GST-only (lane 1) or GST-Sec7 (lane 2) are shown. […] The peptide pull-down assay was performed with peptides a2N-01 and a2N-03 immobilized on streptavidin-beads and incubated with purified recombinant GST-PH domain (5B) or GST-PB domain (5C). Interacting complexes were eluted and analyzed by Western blotting using monoclonal anti-GST antibodies. […]
These a2N-derived peptides were immobilized by an N-terminal biotin-tag, which ensured the same efficiency and equivalent binding to streptavidin-agarose beads. […] After washing beads four times in ice-cold binding buffer, the interacting complexes were eluted by boiling in SDS-PAGE sample buffer for 10 min at 95° C., resolved by SDS-PAGE and analyzed by Western blotting using monoclonal anti-GST antibody.

The target of the next experiment is T2, GST-ARNO(wt) (Homo sapiens, UniProt Q99418).
T2 construct: i) 1-400aa, full length ARNO(wt); made in house; host or cells: E. coli BL21(DE3)
T2 sequence (Q99418 1-400): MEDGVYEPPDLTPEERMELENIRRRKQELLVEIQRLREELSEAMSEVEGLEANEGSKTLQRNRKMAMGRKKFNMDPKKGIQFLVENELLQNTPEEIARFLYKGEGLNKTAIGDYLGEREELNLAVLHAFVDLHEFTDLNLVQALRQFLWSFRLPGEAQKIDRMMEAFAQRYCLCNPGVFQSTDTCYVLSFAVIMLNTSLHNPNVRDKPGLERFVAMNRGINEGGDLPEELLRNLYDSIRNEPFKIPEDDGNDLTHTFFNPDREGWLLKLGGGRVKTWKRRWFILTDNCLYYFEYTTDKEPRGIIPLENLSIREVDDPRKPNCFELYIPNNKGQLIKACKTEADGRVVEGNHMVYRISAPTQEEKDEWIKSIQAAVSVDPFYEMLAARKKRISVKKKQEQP
Put plainly: a2N-derived peptide pull-down assay with GST-ARNO(wt). The experiment is classed as binding. Set-up: key to interaction with ARNO (asterisk mark in Table 1): The interacting peptides are indicated in bold with an asterisk (*). The method, then: FIG. 2A is an image of a Western blot showing the results of an a2N-derived peptide pull-down assay. The indicated a2N-derived peptides were immobilized on streptavidin-beads and incubated with purified recombinant GST-ARNO(wt). Interacting complexes were eluted and analyzed by Western blotting using monoclonal anti-GST antibodies.
FIG. 2B is an image of a Western blot showing the results of a pull-down assay with selected a2N-derived interacting peptides incubated with either GST (negative control) or GST-ARNO(wt). The first two lanes show the patterns obtained when either GST-only (lane 1) or GST-ARNO(wt) (lane 2) were loaded onto the gel.
Peptides were synthesized, purified by HPLC and analyzed by mass spectrometry in the MGH Peptide/Protein Core Facility. All a2N-derived peptides were synthesized with a biotin-tag on the N-terminus for immobilization on streptavidin-agarose beads and with an additional C-terminal cysteine residue for immobilization on beads using sulfhydryl-specific crosslinkers. A peptide corresponding to the PB-domain of ARNO was synthesized containing either a non-phosphorylated or a phosphorylated Ser392 residue. Peptide stock solutions were prepared in DMSO at 5 mM concentration and stored at −20° C. […]

The next experiment has as its target T3, PB-domain of ARNO (Homo sapiens, UniProt Q99418).
T3 construct: v) 379-400aa, polybasic (PB) domain; made in house; host or cells: E. coli BL21(DE3)
The experiment in a line: a2N-derived peptide pull-down with GST-PB domain. It counts as binding. The method, then: as §1
(§2) These a2N-derived peptides were immobilized by an N-terminal biotin-tag, which ensured the same efficiency and equivalent binding to streptavidin-agarose beads. […] After washing beads four times in ice-cold binding buffer, the interacting complexes were eluted by boiling in SDS-PAGE sample buffer for 10 min at 95° C., resolved by SDS-PAGE and analyzed by Western blotting using monoclonal anti-GST antibody. […]

The target in a further experiment is T4, PH-domain of ARNO (Homo sapiens, UniProt Q99418).
T4 construct: iv) 253-378aa, plekstrin-homology (PH) domain; made in house; host or cells: E. coli BL21(DE3)
T4 sequence (Q99418 253-378): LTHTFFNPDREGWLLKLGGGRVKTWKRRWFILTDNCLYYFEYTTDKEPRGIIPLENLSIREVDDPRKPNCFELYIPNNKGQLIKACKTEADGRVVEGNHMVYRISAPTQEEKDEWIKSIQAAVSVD
The experiment in a line: a2N-derived peptide pull-down with GST-PH domain. It counts as binding. As to the method:
as §1, §2

Another experiment concerns the target T5, GST-only (UniProt P08515 1-218 = GST).
T5 construct: Control bait/prey in pull-down assays; also called GST (negative control)
The experiment in a line: peptide pull-down: biotinylated peptide on streptavidin beads, GST-only in solution, Western blot with anti-GST antibody.

The target in experiment [1] is Sec7-6His recombinant protein (human) (UniProt Q99418). Put plainly: calculated from the SPR KD (deltaG = RT ln KD).
The target is the same in experiment [2]. Put plainly: SPR (BIAcore T100), biotinylated a2N-01 captured on neutravidin, Sec7-6His as analyte, 1:1 fit. (Surface plasmon resonance follows binding to a sensor surface in real time, without labels.)
A further experiment concerns the target T6, recombinant ARNO (human, UniProt Q99418 1-400, limits assumed).
T6 sequence (looked up): T2 sequence (Q99418 1-400)
Put plainly: cell-based or functional assay.

“Also recorded” adds a separate entry of the source. Ends that are not written are not given here. * marks the point of attachment. FITC = O=C1OC2(c3ccc(O)cc3Oc3cc(O)ccc32)c2ccc(NC(=S)*)cc21; Biotin = O=C1N[C@H]2[C@H](CS[C@H]2CCCCC(=O)*)N1; βAla = NCCC(=O)O

T5 sequence (P08515 whole entry): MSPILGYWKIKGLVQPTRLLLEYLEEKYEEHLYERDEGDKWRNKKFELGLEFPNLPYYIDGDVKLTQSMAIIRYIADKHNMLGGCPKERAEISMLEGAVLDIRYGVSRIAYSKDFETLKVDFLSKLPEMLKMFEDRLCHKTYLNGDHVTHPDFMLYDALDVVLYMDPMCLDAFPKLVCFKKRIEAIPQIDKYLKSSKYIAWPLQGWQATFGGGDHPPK

Turning to “Bio-VQFRDLNQNVSSFQR-Cys (VQFRDLNQNVSSFQRC) [a2N-03, AA 35-49 of a2N]”, the “interaction with Sec7-domain of ARNO” value in the experiment with Sec7-domain of ARNO was “interacts”. In addition, in the experiment with GST-ARNO(wt) (Western blot anti-GST, GST-only as control), the “interaction of a2N-derived peptide with GST-ARNO(wt) in pull-down” value was “specific interaction; also recorded: capable of interaction with ARNO”. In addition, the “interaction with ARNO (asterisk mark in Table 1)” value in the experiment with GST-ARNO(wt) (biotin-tagged peptides on streptavidin beads) is “Bio-VQFRDLNQNVSSFQR-Cys *”. The “interaction with PB-domain of ARNO” value with PB-domain of ARNO was “interacts equally well”. The “interaction with PH-domain of ARNO” value in the experiment with PH-domain of ARNO is “interacts equally well”.

B1: a2N-01 (peptide)
peptide: Biotin-MGSLFRSESMCLAQLFLC
modifications: cysteine pairing not given here
notes: Synthetic peptide from the mouse V-ATPase a2-subunit N-terminal tail; Bio- at N-terminus, extra Cys at C-terminus; also called a2N1-17; biotinylated a2N-01 peptide
Turning to B1, the binding result with GST-only is reported as “no binding”. Also, the free energy of binding in experiment [1] was -8.81 kcal/mol. Besides, in experiment [2], the Kd was 344 nM, the off-rate (koff) turned out to be 0.00086 s⁻¹ and the on-rate (kon) was determined as 2500 M⁻¹ s⁻¹.

B2: FITC-a2N-01-TAT (peptide)
peptide: {FITC-βAla}-MGSLFRSESMCLAQLFLYGRKKRRQRRR
On to B2, for which, in the experiment with recombinant ARNO, the “IC50 of inhibition of ARNO's GEF activity (radiolabel GDP/GTP-exchange assay, 5% PIP2 vesicles)” value was approximately 700 nM.

As usually defined, the Kd is a measure of binding affinity in units of concentration. What is called koff is the first-order rate constant of dissociation. The term kon denotes a measure of how fast the partners come together.
